The numbers were not newly measured in paper PMC8687316, which cites them from elsewhere.

The target in the data set is p53 (Homo sapiens) (UniProt P04637).
Chain of p53 (Homo sapiens) (P04637 whole entry): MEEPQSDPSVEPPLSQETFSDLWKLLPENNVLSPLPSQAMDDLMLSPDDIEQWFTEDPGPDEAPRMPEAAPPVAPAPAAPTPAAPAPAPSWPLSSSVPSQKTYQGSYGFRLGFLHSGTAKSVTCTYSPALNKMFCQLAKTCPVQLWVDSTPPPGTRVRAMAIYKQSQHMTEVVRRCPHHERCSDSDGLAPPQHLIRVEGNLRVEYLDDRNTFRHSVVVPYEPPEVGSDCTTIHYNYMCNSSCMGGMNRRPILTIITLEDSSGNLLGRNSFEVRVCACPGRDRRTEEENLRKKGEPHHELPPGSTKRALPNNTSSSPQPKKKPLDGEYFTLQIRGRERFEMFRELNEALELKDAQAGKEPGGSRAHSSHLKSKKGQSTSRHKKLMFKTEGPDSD

Chain of Mdm2 (Q00987 whole entry): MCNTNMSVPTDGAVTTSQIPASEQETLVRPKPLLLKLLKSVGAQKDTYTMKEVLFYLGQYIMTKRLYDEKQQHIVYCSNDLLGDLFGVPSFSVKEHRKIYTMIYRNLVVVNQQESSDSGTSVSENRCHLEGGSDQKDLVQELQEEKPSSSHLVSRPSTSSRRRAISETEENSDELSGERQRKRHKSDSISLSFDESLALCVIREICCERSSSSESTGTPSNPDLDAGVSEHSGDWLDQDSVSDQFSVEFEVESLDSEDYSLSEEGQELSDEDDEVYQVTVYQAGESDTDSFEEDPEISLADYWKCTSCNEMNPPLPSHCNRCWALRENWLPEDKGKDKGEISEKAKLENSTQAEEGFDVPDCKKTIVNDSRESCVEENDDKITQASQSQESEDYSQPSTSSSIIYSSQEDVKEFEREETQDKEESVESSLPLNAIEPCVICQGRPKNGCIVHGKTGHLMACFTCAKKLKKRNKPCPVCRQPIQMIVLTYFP

One may read the Kd as a measure of binding affinity in units of concentration. Regarding Mdm2 (from UniProt Q00987), the Kd was 1.44 nM.
